Some targets named below: CaMKIIβ(h) (human) (UniProt Q13554); DRAK1(h) (human) (UniProt Q9UEE5); Snk(h) (human) (UniProt Q9NYY3); CDK2/cyclinE(h) (human) (UniProt P24941); GRK6(h) (human) (UniProt P43250); EphB3(h) (human) (UniProt P54753); PAK2(h) (human) (UniProt Q13177); MuSK(h) (human) (UniProt O15146); Pim-3(h) (human) (UniProt Q86V86); CaMKIδ(h) (human) (UniProt Q8IU85).
Common to all, as to experiment: cell-based or functional assay
Another test concerns the target T1, Itk(h) (human) (UniProt Q08881).
T1 sequence (looked up): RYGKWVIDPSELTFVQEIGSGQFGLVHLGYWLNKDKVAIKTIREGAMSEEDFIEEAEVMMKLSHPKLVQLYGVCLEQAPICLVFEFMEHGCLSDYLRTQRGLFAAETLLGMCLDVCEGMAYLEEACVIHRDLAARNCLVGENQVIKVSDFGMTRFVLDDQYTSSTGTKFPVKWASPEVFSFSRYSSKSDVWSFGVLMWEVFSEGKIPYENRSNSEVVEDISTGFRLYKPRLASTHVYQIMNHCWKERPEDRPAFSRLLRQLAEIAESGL

A further test deals with T2, PhKγ2(h) (human) (UniProt P15735).
T2 sequence (looked up): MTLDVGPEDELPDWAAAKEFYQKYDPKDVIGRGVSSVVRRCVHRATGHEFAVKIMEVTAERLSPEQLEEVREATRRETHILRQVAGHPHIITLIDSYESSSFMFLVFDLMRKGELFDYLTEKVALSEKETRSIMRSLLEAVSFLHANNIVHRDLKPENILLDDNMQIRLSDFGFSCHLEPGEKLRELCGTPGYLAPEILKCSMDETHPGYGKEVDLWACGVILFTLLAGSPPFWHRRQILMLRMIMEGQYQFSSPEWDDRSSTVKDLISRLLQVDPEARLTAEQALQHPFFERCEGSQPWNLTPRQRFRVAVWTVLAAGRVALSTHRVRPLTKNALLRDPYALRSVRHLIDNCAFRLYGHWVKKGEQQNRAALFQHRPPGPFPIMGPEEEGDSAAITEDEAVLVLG

In another test the target is T3, IRAK4(h) (human) (UniProt Q9NWZ3).
T3 sequence (looked up): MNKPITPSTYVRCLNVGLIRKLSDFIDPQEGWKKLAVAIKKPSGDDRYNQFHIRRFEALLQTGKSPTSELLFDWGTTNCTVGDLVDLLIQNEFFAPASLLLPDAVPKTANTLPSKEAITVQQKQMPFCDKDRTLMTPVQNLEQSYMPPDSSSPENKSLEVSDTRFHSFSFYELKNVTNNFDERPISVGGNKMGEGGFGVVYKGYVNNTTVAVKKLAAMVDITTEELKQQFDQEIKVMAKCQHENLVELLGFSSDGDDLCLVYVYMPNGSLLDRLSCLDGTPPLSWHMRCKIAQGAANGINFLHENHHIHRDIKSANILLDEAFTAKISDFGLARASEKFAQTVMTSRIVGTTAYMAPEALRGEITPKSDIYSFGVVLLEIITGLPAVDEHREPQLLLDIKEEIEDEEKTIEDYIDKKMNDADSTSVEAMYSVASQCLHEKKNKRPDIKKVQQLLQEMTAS

Another test deals with T4, MST1(h) (human) (UniProt Q13043).
T4 sequence (looked up): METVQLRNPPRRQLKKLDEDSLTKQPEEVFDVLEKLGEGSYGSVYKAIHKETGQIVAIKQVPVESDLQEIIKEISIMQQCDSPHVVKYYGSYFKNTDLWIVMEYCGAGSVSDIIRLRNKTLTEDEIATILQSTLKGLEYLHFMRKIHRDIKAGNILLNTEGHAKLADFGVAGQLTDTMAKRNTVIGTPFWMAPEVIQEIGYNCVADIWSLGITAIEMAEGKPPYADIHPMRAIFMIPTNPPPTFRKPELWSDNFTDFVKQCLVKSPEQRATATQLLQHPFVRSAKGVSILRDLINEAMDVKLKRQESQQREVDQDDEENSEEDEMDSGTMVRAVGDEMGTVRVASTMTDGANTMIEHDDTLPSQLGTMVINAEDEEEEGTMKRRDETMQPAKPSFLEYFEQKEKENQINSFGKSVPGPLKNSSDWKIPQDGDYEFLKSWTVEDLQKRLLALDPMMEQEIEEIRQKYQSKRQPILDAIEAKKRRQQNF

Test [1] concerns the target EGFR(T790M,L858R)(h) (human) (UniProt P00533).
The next test addresses T5, IKKβ(h) (human) (UniProt O14920).
T5 sequence (looked up): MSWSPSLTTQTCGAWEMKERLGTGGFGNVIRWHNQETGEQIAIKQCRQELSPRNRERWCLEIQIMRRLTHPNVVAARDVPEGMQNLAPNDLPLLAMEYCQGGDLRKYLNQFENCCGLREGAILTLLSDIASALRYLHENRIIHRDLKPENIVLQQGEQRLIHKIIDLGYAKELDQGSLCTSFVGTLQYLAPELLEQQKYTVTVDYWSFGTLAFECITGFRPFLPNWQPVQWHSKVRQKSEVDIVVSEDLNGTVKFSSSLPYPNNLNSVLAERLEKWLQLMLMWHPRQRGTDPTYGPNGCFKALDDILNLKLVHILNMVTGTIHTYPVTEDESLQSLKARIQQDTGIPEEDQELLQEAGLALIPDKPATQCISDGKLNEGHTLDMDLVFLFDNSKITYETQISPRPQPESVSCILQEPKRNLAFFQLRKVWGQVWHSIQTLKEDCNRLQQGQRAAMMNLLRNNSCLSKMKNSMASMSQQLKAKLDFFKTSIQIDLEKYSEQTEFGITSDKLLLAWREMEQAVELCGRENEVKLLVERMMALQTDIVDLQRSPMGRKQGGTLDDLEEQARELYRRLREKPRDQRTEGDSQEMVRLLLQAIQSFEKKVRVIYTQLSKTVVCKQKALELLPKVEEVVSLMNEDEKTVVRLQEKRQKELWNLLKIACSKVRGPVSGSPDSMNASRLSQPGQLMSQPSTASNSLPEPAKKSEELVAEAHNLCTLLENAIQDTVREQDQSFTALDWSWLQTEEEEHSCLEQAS

Chain of MuSK(h) (human) (O15146 517-869 limits assumed): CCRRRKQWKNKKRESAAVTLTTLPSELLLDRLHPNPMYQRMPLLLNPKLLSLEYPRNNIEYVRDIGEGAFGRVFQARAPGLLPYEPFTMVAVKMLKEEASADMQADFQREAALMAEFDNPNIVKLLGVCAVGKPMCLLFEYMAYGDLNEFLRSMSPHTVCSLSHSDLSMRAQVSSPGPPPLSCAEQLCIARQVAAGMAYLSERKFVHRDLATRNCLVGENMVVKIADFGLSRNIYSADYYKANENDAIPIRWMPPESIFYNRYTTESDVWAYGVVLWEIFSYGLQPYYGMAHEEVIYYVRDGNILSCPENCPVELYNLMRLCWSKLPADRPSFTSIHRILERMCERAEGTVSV
Chain of CaMKIIβ(h) (human) (Q13554 whole entry): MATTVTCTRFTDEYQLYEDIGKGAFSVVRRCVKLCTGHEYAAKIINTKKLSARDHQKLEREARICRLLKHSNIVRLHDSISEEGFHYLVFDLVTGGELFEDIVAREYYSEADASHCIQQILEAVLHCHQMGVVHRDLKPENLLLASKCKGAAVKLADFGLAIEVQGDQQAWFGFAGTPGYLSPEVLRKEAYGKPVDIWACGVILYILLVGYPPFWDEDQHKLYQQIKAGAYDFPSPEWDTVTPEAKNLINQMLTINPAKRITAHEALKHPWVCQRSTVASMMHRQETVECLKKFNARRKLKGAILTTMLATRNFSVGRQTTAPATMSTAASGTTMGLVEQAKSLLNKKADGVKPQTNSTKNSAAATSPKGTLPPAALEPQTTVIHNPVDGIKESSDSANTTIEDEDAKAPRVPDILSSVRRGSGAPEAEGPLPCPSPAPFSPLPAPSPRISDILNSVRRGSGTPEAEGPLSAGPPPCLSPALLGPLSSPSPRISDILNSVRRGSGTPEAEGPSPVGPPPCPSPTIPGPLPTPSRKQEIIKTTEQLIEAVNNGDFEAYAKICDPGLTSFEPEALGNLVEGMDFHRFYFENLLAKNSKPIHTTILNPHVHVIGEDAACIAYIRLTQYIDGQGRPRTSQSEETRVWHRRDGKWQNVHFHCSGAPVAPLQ
Chain of CaMKIδ(h) (human) (Q8IU85 whole entry, stated change not applied): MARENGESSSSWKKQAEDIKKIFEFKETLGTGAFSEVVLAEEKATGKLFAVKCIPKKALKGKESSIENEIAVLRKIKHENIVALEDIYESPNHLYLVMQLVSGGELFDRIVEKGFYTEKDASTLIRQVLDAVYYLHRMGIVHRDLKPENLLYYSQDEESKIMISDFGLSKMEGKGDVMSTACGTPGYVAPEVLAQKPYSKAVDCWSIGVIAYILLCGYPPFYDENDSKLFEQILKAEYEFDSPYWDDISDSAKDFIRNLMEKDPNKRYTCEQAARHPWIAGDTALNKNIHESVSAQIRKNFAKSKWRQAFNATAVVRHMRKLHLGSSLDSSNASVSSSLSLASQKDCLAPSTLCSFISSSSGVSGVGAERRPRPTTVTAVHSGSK
Chain of DRAK1(h) (human) (Q9UEE5 whole entry): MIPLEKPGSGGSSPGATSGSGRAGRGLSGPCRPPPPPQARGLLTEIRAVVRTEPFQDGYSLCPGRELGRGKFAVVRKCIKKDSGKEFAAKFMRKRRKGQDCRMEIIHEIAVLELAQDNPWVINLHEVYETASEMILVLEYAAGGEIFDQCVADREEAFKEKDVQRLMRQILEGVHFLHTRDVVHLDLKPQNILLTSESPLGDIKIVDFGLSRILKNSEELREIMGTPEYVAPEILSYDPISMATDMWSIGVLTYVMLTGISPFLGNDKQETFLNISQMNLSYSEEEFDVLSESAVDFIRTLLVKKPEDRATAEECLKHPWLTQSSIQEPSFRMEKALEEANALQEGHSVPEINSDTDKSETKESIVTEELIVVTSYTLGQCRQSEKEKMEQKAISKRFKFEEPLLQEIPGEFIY
Chain of Snk(h) (human) (Q9NYY3 whole entry): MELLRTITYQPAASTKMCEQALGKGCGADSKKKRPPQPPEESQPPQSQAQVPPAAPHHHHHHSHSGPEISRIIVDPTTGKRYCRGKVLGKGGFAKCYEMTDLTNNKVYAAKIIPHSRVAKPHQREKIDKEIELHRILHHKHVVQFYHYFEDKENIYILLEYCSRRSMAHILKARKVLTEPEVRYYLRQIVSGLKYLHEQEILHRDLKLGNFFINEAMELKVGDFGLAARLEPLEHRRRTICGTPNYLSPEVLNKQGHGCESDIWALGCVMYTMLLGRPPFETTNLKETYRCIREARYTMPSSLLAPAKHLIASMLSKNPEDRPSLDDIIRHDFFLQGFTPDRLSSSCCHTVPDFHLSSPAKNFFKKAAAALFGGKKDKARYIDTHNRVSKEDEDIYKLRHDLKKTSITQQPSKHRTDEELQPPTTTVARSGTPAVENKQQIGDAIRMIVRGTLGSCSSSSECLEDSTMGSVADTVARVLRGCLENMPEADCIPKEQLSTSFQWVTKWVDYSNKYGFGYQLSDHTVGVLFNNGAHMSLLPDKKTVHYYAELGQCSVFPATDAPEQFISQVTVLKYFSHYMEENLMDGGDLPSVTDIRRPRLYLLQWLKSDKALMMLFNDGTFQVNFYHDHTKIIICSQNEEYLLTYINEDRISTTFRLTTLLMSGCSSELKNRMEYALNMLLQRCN
Chain of EphB3(h) (human) (P54753 581-998 limits assumed): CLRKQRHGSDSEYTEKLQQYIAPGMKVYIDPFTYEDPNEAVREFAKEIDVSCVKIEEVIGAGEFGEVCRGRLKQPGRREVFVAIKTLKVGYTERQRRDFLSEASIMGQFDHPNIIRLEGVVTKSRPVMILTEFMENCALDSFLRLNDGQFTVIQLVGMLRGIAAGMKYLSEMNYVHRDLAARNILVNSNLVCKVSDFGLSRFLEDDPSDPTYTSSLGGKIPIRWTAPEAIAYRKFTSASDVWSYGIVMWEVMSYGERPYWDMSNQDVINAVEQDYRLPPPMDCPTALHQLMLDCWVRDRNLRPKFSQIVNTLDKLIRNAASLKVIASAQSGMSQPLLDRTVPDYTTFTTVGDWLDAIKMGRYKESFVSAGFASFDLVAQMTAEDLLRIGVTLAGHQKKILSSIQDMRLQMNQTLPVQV
Chain of PAK2(h) (human) (Q13177 whole entry): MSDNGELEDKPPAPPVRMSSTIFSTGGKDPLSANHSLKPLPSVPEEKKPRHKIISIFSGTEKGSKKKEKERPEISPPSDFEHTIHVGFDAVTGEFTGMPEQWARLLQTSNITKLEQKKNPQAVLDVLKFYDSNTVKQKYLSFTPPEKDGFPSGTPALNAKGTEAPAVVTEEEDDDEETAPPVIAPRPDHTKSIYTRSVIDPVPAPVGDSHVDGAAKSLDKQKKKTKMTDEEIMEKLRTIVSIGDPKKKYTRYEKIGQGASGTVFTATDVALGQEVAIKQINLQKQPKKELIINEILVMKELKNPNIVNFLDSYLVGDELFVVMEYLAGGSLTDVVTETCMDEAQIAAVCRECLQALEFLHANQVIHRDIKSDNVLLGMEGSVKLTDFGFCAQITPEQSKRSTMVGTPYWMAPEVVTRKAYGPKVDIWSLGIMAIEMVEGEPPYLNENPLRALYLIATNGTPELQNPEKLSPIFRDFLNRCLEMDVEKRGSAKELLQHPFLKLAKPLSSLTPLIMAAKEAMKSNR
Chain of GRK6(h) (human) (P43250 whole entry): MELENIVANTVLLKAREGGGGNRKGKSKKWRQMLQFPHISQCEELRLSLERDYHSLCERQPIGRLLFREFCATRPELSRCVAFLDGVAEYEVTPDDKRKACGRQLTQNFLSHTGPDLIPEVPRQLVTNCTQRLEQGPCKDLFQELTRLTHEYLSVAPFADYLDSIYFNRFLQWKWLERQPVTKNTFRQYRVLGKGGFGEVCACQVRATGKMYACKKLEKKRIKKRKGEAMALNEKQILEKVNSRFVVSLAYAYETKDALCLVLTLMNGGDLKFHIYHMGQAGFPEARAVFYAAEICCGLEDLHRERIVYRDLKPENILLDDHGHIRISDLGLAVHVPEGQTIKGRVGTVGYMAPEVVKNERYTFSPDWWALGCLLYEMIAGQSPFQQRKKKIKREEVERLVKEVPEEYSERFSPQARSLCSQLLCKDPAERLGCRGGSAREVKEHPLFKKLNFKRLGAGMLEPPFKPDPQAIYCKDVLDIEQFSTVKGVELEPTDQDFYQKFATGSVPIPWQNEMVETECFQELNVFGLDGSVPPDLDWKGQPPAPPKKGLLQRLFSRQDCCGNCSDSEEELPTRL

For MMI-0500 (peptide), the % activity, 100 µM with CaMKIIβ(h) (human) was 3%; with Itk(h) (human), 7%; with DRAK1(h) (human), 8%; with Snk(h) (human) it was 122%; with PhKγ2(h) (human), 16%; with IRAK4(h) (human), 3%. For the same substance, the % activity, 100 µM in the test with CDK2/cyclinE(h) (human) was 19%; with GRK6(h) (human), 174%; with EphB3(h) (human) it was 79%; in the test with MST1(h) (human), 3%; in test [1] it was 53%; with PAK2(h) (human), 44%. Moreover, the % activity, 100 µM with MuSK(h) (human) turned out to be 27%; in the test with Pim-3(h) (human) it was 37%; with CaMKIδ(h) (human), 0%; in the test with IKKβ(h) (human), 71%.

(Values after patent publication US20140072613A1, “Compositions and Methods for Treating Cutaneous Scarring” (priority 2012, published 2014).)
